From US20240392004A1 (IMMUNOWAKE, published 2024)

Key:
human PD-1 [1] = biological target: T1, human PD-1 (human, UniProt Q15116 25-167, limits assumed); assay: rounded restatement of Tables 14 and 15
T1 construct: also called hPD-1

mouse PD-1 [2] = biological target: T2, mouse PD-1 (mouse, UniProt Q02242 25-167, limits assumed); assay: rounded restatement of Tables 14 and 15
T2 construct: also called mPD-1
T2 sequence (looked up): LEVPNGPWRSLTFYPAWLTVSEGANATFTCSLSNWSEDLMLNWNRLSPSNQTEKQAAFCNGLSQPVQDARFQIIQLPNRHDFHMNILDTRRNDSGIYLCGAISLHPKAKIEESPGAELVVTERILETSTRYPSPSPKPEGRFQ

mouse PD-1 [3] = biological target: T2, mouse PD-1; assay: same value as Table 15 (measured in PD-L2-Fc format)
[4] = biological target: human PD-1 on cells (HEK-PD-1 reporter cells; activated PBMC) (human, UniProt Q15116 25-288); assay: cell-based or functional assay
[5] = biological target: human IL-12 receptor complex (IL-12Rβ1 and IL-12Rβ2) (human, UniProt P42701 24-662; Q99665 24-862); assay: cell-based or functional assay
[6] = biological target: T3, human IL-2 receptor (IL-2Rα, IL-2Rβ, IL-2Rγ) (human, UniProt P01589 22-272; P14784 27-551; P31785 23-369); assay: cell-based or functional assay
T3 sequence (looked up) 1: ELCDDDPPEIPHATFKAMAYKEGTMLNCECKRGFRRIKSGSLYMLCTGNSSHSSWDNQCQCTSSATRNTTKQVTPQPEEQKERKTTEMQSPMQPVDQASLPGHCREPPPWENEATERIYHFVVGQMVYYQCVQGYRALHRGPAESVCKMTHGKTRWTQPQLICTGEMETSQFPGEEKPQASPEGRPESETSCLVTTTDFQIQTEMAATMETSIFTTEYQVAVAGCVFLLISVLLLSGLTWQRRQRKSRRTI
T3 sequence (looked up) 2: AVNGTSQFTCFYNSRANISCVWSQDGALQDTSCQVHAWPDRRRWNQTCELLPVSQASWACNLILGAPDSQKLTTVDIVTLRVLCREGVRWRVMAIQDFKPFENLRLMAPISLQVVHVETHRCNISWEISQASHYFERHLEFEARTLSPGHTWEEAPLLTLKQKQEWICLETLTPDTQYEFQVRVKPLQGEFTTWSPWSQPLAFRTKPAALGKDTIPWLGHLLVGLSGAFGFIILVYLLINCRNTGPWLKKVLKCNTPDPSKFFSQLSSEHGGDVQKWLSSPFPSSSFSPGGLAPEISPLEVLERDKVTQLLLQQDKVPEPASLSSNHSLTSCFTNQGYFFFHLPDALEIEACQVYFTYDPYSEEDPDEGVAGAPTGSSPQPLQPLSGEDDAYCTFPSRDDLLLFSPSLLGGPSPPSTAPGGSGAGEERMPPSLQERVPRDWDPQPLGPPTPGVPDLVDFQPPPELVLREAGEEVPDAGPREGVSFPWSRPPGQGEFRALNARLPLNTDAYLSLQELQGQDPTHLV
T3 sequence (looked up) 3: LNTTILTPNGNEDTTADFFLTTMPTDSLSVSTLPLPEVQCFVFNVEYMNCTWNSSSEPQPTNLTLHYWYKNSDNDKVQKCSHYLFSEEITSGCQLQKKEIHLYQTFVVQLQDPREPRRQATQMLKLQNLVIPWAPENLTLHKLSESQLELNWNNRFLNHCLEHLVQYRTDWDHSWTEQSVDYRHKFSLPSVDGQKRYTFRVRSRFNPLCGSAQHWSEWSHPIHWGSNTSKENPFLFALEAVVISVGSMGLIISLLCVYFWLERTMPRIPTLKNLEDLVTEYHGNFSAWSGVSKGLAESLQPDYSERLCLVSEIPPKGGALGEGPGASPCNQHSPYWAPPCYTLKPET

mouse PD-1 [7] = biological target: T2, mouse PD-1; assay: same value as Table 14 (measured in PD-L1-Fc format)
human PD-1 [8] = biological target: T1, human PD-1; assay: PD-L2-Fc format, method not stated
mouse PD-1 [9] = biological target: T2, mouse PD-1; assay: PD-L2-Fc format, method not stated

T1 sequence (Q15116 25-167 limits assumed): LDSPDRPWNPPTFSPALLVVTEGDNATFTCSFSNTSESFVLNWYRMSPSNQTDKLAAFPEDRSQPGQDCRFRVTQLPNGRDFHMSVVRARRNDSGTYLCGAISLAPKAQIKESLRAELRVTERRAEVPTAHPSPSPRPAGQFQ
human PD-1 on cells (HEK-PD-1 reporter cells; activated PBMC), sequence (Q15116 25-288): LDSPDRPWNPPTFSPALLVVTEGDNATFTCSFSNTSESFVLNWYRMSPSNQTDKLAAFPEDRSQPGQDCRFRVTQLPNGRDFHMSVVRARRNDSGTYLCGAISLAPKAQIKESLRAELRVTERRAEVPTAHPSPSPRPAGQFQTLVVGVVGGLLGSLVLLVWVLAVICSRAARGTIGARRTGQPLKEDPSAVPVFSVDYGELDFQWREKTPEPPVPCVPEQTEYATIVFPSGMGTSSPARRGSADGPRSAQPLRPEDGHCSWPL
human IL-12 receptor complex (IL-12Rβ1 and IL-12Rβ2), sequence (Q99665 24-862, chain 2 of 2, other chains not shown): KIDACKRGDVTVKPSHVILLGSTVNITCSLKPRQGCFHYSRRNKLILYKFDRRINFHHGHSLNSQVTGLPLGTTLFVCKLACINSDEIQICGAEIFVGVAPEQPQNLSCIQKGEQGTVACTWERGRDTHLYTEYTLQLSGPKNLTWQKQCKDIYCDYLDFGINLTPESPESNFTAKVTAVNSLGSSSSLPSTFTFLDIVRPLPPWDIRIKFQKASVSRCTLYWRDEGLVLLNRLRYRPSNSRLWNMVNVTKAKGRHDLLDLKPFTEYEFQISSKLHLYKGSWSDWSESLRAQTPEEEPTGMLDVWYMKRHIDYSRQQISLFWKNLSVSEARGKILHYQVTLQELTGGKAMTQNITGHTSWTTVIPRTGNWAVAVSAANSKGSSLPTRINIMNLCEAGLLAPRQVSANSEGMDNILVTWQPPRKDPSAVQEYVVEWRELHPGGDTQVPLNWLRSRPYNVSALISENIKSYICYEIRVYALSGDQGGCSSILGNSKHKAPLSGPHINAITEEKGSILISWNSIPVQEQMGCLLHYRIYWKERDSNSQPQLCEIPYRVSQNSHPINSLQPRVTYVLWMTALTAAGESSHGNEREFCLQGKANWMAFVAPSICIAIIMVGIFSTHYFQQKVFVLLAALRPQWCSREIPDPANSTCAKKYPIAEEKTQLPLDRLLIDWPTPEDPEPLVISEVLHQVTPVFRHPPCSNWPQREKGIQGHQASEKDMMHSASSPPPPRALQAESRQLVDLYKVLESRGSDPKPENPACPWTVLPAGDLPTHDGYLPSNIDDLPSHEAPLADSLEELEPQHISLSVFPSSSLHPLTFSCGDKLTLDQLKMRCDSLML

B1: IL-12(E59A/F60A)/PD-L2(S58V)-Fc (IL-12 at hinge) (Fc fusion)
chain 1: LFTVTVPKELYIIEHGSNVTLECNFDTGSHVNLGAITAVLQKVENDTSPHRERATLLEEQLPLGKASFHIPQVQVRDEGQYQCIIIYGVAWDYKYLTLKVKASYRKINTHILKVPETDEVELTCQATGYPLAEVSWPNVSVPANTSHSRTPEGLYQVTSVLRLKPPPGRNFSCVFWNTHVRELTLASIDLQSQMEPRTHPTGGGGSGGGIWELKKDVYVVELDWYPDAPGEMVVLTCDTPEEDGITWTLDQSSEVLGSGKTLTIQVKAAGDAGQYTCHKGGEVLSHSLLLLHKKEDGIWSTDILKDQKEPKNKTFLRCEAKNYSGRFTCWWLTTISTDLTFSVKSSRGSSDPQGVTCGAATLSAERVRGDNKEYEYSVECQEDSACPAAEESLPIEVMVDAVHKLKYENYTSSFFIRDIIKPDPPKNLQLKPLKNSRQVEVSWEYPDTWSTPHSYFSLTFCVQVQGKSKREKKDRVFTDKTSATVICRKNASISVRAQDRYYSSSWSEWASVPCSGGGGSGGGSGGGGSRNLPVATPDPGMFPCLHHSQNLLRAVSNMLQKARQTLEFYPCTSEEIDHEDITKDKTSTVEACLPLELTKNESCLNSRETSFITNGSCLASRKTSFMMALCLSSIYEDLKMYQVEFKTMNAKLLMDPKRQIFLDQNMLAVIDELMQALNFNSETVPQKSSLEEPDFYKTKIKLCILLHAFRIRAVTIDRVMSYLNASGGGGSGGGDKTHTCPPCPAPEDEGGPSVFLFPPKPKDTLMISRTPEVTCVVVDVSHEDPEVKFNWYVDGVEVHNAKTKPREEQYNSTYRVVSVLTVLHQDWLNGKEYKCKVSNKALPAPIEKTISKAKGQPREPQVYVYPPSREEMTKNQVSLTCLVKGFYPSDIAVEWESNGQPENNYKTTPPVLDEDGSFALVSKLTVDKSRWQQGNVFSCSVMHEALHNHYTQKSLSLSPGK
chain 2: LFTVTVPKELYIIEHGSNVTLECNFDTGSHVNLGAITAVLQKVENDTSPHRERATLLEEQLPLGKASFHIPQVQVRDEGQYQCIIIYGVAWDYKYLTLKVKASYRKINTHILKVPETDEVELTCQATGYPLAEVSWPNVSVPANTSHSRTPEGLYQVTSVLRLKPPPGRNFSCVFWNTHVRELTLASIDLQSQMEPRTHPTGGGGSGGGDKTHTCPPCPAPEKKGGPSVFLFPPKPKDTLMISRTPEVTCVVVDVSHEDPEVKFNWYVDGVEVHNAKTKPREEQYNSTYRVVSVLTVLHQDWLNGKEYKCKVSNKALPAPIEKTISKAKGQPREPQVYVLPPSREEMTKNQVSLLCLVKGFYPSDIAVEWESNGQPENRYMTWPPVLDSDGSFFLYSKLTVDKSRWQQGNVFSCSVMHEALHNHYTQKSLSLSPGK
notes: also called IL-12(E59A/F60A)/PD-L2(mut2)-Fc
Human PD-1 [1]
  Kd: ~100 nM
Mouse PD-1 [2]
  Kd: ~100 nM
Mouse PD-1 [3]
  Kd: 230 nM

B2: IL-12(E59A/F60A)/PD-L1(mut2)-Fc (IL-12 at hinge) (Fc fusion)
chain 1: FTVTVPKDLYVVEYGSNMTIECKFPVEKQLDLAALQVYWMMEDKNIIQFVHGEEDLKVQHSSYRQRARLLKDQLSLGNAALQITDVKLQDAGVYTCLIAYKGADYKRITVKVNAPYNKINQRILVVDPVTSEHELTCQAEGYPKAEVIWTSSDHQVLSGKTTTTNSKREEKLFNVTSTLRINTTTNEIFYCTFRRLDPEENHTAELVIPELPLAHPPNERGGGGSGGGIWELKKDVYVVELDWYPDAPGEMVVLTCDTPEEDGITWTLDQSSEVLGSGKTLTIQVKAAGDAGQYTCHKGGEVLSHSLLLLHKKEDGIWSTDILKDQKEPKNKTFLRCEAKNYSGRFTCWWLTTISTDLTFSVKSSRGSSDPQGVTCGAATLSAERVRGDNKEYEYSVECQEDSACPAAEESLPIEVMVDAVHKLKYENYTSSFFIRDIIKPDPPKNLQLKPLKNSRQVEVSWEYPDTWSTPHSYFSLTFCVQVQGKSKREKKDRVFTDKTSATVICRKNASISVRAQDRYYSSSWSEWASVPCSGGGGSGGGSGGGGSRNLPVATPDPGMFPCLHHSQNLLRAVSNMLQKARQTLEFYPCTSEEIDHEDITKDKTSTVEACLPLELTKNESCLNSRETSFITNGSCLASRKTSFMMALCLSSIYEDLKMYQVEFKTMNAKLLMDPKRQIFLDQNMLAVIDELMQALNFNSETVPQKSSLEEPDFYKTKIKLCILLHAFRIRAVTIDRVMSYLNASGGGGSGGGDKTHTCPPCPAPEDEGGPSVFLFPPKPKDTLMISRTPEVTCVVVDVSHEDPEVKFNWYVDGVEVHNAKTKPREEQYNSTYRVVSVLTVLHQDWLNGKEYKCKVSNKALPAPIEKTISKAKGQPREPQVYVYPPSREEMTKNQVSLTCLVKGFYPSDIAVEWESNGQPENNYKTTPPVLDEDGSFALVSKLTVDKSRWQQGNVFSCSVMHEALHNHYTQKSLSLSPGK
chain 2: FTVTVPKDLYVVEYGSNMTIECKFPVEKQLDLAALQVYWMMEDKNIIQFVHGEEDLKVQHSSYRQRARLLKDQLSLGNAALQITDVKLQDAGVYTCLIAYKGADYKRITVKVNAPYNKINQRILVVDPVTSEHELTCQAEGYPKAEVIWTSSDHQVLSGKTTTTNSKREEKLFNVTSTLRINTTTNEIFYCTFRRLDPEENHTAELVIPELPLAHPPNERGGGGSGGGDKTHTCPPCPAPEKKGGPSVFLFPPKPKDTLMISRTPEVTCVVVDVSHEDPEVKFNWYVDGVEVHNAKTKPREEQYNSTYRVVSVLTVLHQDWLNGKEYKCKVSNKALPAPIEKTISKAKGQPREPQVYVLPPSREEMTKNQVSLLCLVKGFYPSDIAVEWESNGQPENRYMTWPPVLDSDGSFFLYSKLTVDKSRWQQGNVFSCSVMHEALHNHYTQKSLSLSPGK
notes: also called IL-12(E59A/F60A)/PD-L1(I54Q/E58M/R113T/M115L/S117A/G119K)-Fc
[4]
  IL-2 signal transduction, HEK-IL-2-PD-1: < 0.1%
  IL-12 signal transduction, HEK-IL-12-PD-1: 24%
[5]
  IL-12 signal transduction, HEK-IL-12: < 0.2%
[6]
  IL-2 signal transduction, HEK-IL-2: < 0.1%
Human PD-1 [1]
  Kd: ~100 nM
Mouse PD-1 [2]
  Kd: ~100 nM
Mouse PD-1 [7]
  Kd: 120 nM

B3: PD-L2(wt)-Fc (heterodimer) (Fc fusion)
chain 1: LFTVTVPKELYIIEHGSNVTLECNFDTGSHVNLGAITASLQKVENDTSPHRERATLLEEQLPLGKASFHIPQVQVRDEGQYQCIIIYGVAWDYKYLTLKVKASYRKINTHILKVPETDEVELTCQATGYPLAEVSWPNVSVPANTSHSRTPEGLYQVTSVLRLKPPPGRNFSCVFWNTHVRELTLASIDLQSQMEPRTHPTDKTHTCPPCPAPEDEGGPSVFLFPPKPKDTLMISRTPEVTCVVVDVSHEDPEVKFNWYVDGVEVHNAKTKPREEQYNSTYRVVSVLTVLHQDWLNGKEYKCKVSNKALPAPIEKTISKAKGQPREPQVYVYPPSREEMTKNQVSLTCLVKGFYPSDIAVEWESNGQPENNYKTTPPVLDEDGSFALVSKLTVDKSRWQQGNVFSCSVMHEALHNHYTQKSLSLSPGK
chain 2: LFTVTVPKELYIIEHGSNVTLECNFDTGSHVNLGAITASLQKVENDTSPHRERATLLEEQLPLGKASFHIPQVQVRDEGQYQCIIIYGVAWDYKYLTLKVKASYRKINTHILKVPETDEVELTCQATGYPLAEVSWPNVSVPANTSHSRTPEGLYQVTSVLRLKPPPGRNFSCVFWNTHVRELTLASIDLQSQMEPRTHPTDKTHTCPPCPAPEKKGGPSVFLFPPKPKDTLMISRTPEVTCVVVDVSHEDPEVKFNWYVDGVEVHNAKTKPREEQYNSTYRVVSVLTVLHQDWLNGKEYKCKVSNKALPAPIEKTISKAKGQPREPQVYVLPPSREEMTKNQVSLLCLVKGFYPSDIAVEWESNGQPENRYMTWPPVLDSDGSFFLYSKLTVDKSRWQQGNVFSCSVMHEALHNHYTQKSLSLSPGK
Human PD-1 [8]
  Kd: 1200 nM
Mouse PD-1 [9]
  Kd: 980 nM
